# Article PMC7244311
# Molecular target: talin R3 IVVI domain in the (R3)-(I91)8 construct (mouse)
# Assay: magnetic tweezers force spectroscopy
substance,measurement,value
vinculin head (domain or fragment),"concentration at half the maximum binding velocity, 9 pN",0.09 µM
same,stoichiometry N,2
